Assay: soluble on expression in E. coli; label from the status in PepcDB or PDB records

Sequence	soluble on expression in E. coli
MNSRQQTILQMVIDQGQVSVTDLAKATGVSEVTIRQDLNTLEKLSYLRRAHGFAVSLDSDDVETRMMSNYTLKRELAEFAASLVQPGETIFIENGSSNALLARTLGEQKKNVTIITVSSYIAHLLKDAPCEVILLGGVYQKKSESMVGPLTRQCIQQVHFSKAFIGIDGWQPETGFTGRDMMRTDVVNAVLEKECEAIVLTDSSKFGAVHSYSIGPVERFNRVITDSKIRASDLMHLEHSKLTIHVVDI	not soluble
MREIVHVQAGQCGNQIGAKFWEVISDEHGIQPDGTYKGESDLQLERINVYYNEANGGKYVPRAVLVDLEPGTMDSVRSGPFGQLFRPDNFVFGQSGAGNNWAKGHYTEGAELVDNVLDVVRKEAEGCDCLQGFQLTHSLGGGTGSGMGTLLISKIREEYPDRIMSSFSVVPSPKVSDTVVEPYNATLSVHQLVENTDETFCIDNEALYDICFRTLKLSNPTYGDLNHLVSVTMSGVTTCLRFPGQLNADLRKLAVNMVPFPRLHFFMPGFAPLSAKGAQAYRALTVAELTQQMFDAKNMMAACDPRHGRYLTVAAMFRGRMSMREVDDQMMNVQNKNSSYFVEWIPNNVKTAVCDIPPRGLKMSATFIGNSTAIQELFKRISEQFTAMFRRKAFLHWYTGEGMDEMEFTEAESNMNDLVSEYQQYQEATAEEDGELDGTDGDAE	not soluble
MLKRTPLFPVYARYGAKTIEFGGWEMPVQFSSIKEEHEAVRTRAGLFDVSHMGEIVVRGRGSLAFLQKLMTNDVAKLRPGRAQYTLMCYEDGGTVDDLLIYQKGENDYLLVVNAANTEKDFAWLSGHVEGDVELQDVSSETAQLALQGPAAERVLQRLTDFDLAALRPFSFADGVEVSGVKALVSRTGYTGEDGFELYCKAEDAAALWEAILAAGARDGVLPCGLGARDTLRFEACLPLYGQELSDSISPVEAGLGFAVKTEKEPPFIGQAVLKRQKEEGPPRRLVGIEMIDRGIPRHGYLVFADGEEVGFVTTGTQSPTLKKNIGLALVKADVAAIGREVEVDIRGKRLKANIVPIPFYRRAK	not soluble
MGSDKIHHHHHHMTSMEFKIKRDGLALQARLETPAAPSSTLVILMHGFTADMGYDTTQFVPQLAQALVAHGLAVLRFDFNGHGCSEGRFQDMTVINEIADAKAVLDEALTLHYDHIVLAGHSQGGVVASMLAGYYPDVVDKLILMAPAATLKSDAQQGVLQGATYDPQHIPAYLNIRDGLKVGGFYLRTAQQLPIYEVAQQYAGSVTLIHVTADTVVSPQASEKYHEVYQHSQLHWVQDGGHRFSGDARATAIQLALAAFK	not soluble
MVKTTEVVSEVSKVAGVRPWAGIFVVEIQEDILADEFTFEALMRTLPLASQARILNKKSFHDRCSNLCSQLLQLFGCSIVTGLNFQELKFDKGSFGKPFLDNNRFLPFSMTIGEQYVAMFLVKCVSTDEYQDVGIDIASPCNYGGREELELFKEVFSEREFNGLLKASDPCTIFTYLWSLKESYTKFTGTGLNTDLSLIDFGAISFFPAEGASMCITLDEVPLIFHSQWFNNEIVTICMPKSISDKINTNRPKLYNISLSTLIDYFIENDGL	soluble
MLNQSVRFLARRANSQIRRSNLLKTGSLAAQDRGFFFGKRREPRCDLKNQSIVQADGSRKSAWLGDKPLRHESFIGILTTYAGIRRGPTVGGKEMLGKRVMKNGKLEWEWITYEQAFEISDNVSQAIRKLGIEIGDKSNIGIYSKNRPEWVLSDMAIHNFSNVSVPIYDNIPNEDMHYITNLCEIPLMFVDSEDKTTQLIKDKTYLSKSLKYIVQFDKVSDEMKAMAESNNFQLWSFDEFVELGKKHEHRPHAPPTPETLATISFTSGTTGRPKGAMLTHLNLCSTTVACEEFEHVEGELDSYLSYLPLAHVYERHCTLAHFKIGSNFHNFLNKFVEVFFFFKRISSKVTKIFRRIGFSRGDPALLVEDIQALAPRTFACVPRVLGKIYKSVMSQVQDKPVKKMILNSAIAYKLYHYKMTGKATRDTLVDKYILHKIQMILGPNIKQFLIPAAKTDNSSMRFARGAFGIEILELYGLTETSGPTTIQLVGDMLGSVGPPISCTSIKLVDIAELGYFVDENGGEVLVKGHNVTSGYYKDPKATASAFTEDGFMKTGDIGKFTPEGTLQLIDRRDNVLKLPQGEFVAPDLTESLYISSKFVQQICVHGNKEKPWLVAVVVPDPEYLASHANLEHNIEGKTYEELCKIPALAEDVLHALIKFFIWVFAIHLTPIAFSPQNGLTTPTHKNKRTAIAQFFKKQIVEMFDRIEKEEEGTELTTKIENAH	not soluble
MNLPLEYHPFPAILPKSATVAMLGTFPPTSEKRCMEFHYPNFQNDMWRIMGLLFYKNLDHFRVDQEKRFDPVRIEAFLREKGIALCSSAQTAIRLKGNASDKDLKIIDAIDMQALLTELPQLKWLFTTGGLATETLLSLLPEKSKLPKTNEWINYPYTTDRTLYLYRLPSTSRAYPLSLAKKVEAYRQFFVRVGLEHHHHHH	not soluble
MLATPFWYNAALKVLKPVYRWRIKKRAENEMRYQQECRERFGPFQQPQNRHALWFHAVSVGETNAAQPLIEYYLKLGHPVLVTNTTKTGQARAKSLFLKSPYLELFQAVYLPVDQIFLLKQFFELYQPKLLALVETELWPNLIDQAQHYGVPTFLINARLSEKSAQGYARVSALSNAMLSRLTGLLAQDQSTQQRFIGLGLAREKAQVVGNIKFDIDVPLLFVLEHHHHHH	not soluble
MATRRRIGVAAIQKKQETANKFAAKGDQMAGEQLVQFSQQLEQLSAGLEMFAQRHRDEIKKNSQFRRHFQEMCASVGVDPLASSKGFWAKALGFGDFYYELGIQIVEICLSTTHINGGIMTVEEIRNRLMRTRSRTRKDTISTDDILRAVDKLKVLGNGFELVPLGGGRFLVQSVPGELSMDHSRVLQLAEDAAYVTKELIIDKLRWDEARASSALEHLVKEGLAWTDEQASDTTQYWFPSLFLQQYCHSSSSTSVSESLHSMSFNNYQ	not soluble
MFSISLLSCLFLGTVPALAQTGGERRLSPEKSEIWGPGLKAHVVLPVRYFYIRAVDTSGEQFTSSPGEKVFQVKISAPDEQFTRVGVQVLDRKDGSFIVRYRMYASYRNLKIEVKHHGQHVAESPYVLRGPVYHENCDCPLEDSAAWLREMNCSETISQIQKDLAHFPTVDPEKIAAEIPKRFGQRQSLCHYTLKDNKVYIKTHGEHVGFRIFMDAILLSLTRKVRMPDVEFFVNLGDWPLEKKKSNSNIQPIFSWCGSTESRDIVMPTYDLTDSVLETMGRVSLDMMSVQANTGPPWESKNSTAVWRGRDSRKERLELVKLSRKHPELIDAAFTNFFFFKHDESLYGPIVKHISFFDFFKHKYQINIDGTVAAYRLPYLLVGDSVVLKQDSIYYEHFYNELQPWKHYIPVKSNLSDLLEKLKWAKEHDAEAKKIAKAGQEFARNNLMGDDIFCYYFKLFQGYANLQVSEPQIREGMKRVEPQSEDDLFPCTCHRRKAKDEL	soluble
SGFLEQRLGHCLRQMAEKGLEALLVTHLTNSYYLTGFSGTAATVLITAKRRVLITDSRYTLLAKASVEGFDIIESRTPLKVVAELLEADQIDCLGFEDQVSFSFYQAMQAELSGITLLAQSGFVEHLR	not soluble
MATRADEDGDTPLHIAVVQGNLPAVHRLVNLFQQGGRELDIYNNLRQTPLHLAVITTLPSVVRLLVTAGASPMALDRHGQTAAHLACEHRSPTCLRALLDSAAPGTLDLEARNYDGLTALHVAVNTECQETVQLLLERGADIDAVDIKSGRSPLIHAVENNSLSMVQLLLQHGANVNAQMYSGSSALHSASGRGLLPLVRTLVRSGADSSLKNCHNDTPLMVARSRRVIDILRGKATRPAS	soluble
MSLSEELSFSAMVKAELALLTPELPCCRRMELAGLVRALGRLELSGRGRFALTLSTDSAPVSRKVIRLLKSVSPVRYEVMVMRRRKLRKNLVYRVHIPHQPGVAELLQLAGFIDEAGRPADWVEPPELANDHCRRAFLRGTFLGSGWVAGPEKQHHLEITTTATEAADALGQMLFRGGIAARMVARRESLVLYIKEADQIIRFLGLVGAHQALLRYEEVRVIKEMKNQVNRQVNAEVANMTKQADAAARQVEAIKRLEAAGALERVSPPLRELAGLRLAYPDASLKELGELCRPPVSKSGAAHRMRQLMALAESLEEGHHHHHH	soluble
MSLMLKKNDIIQVAISDLSHEGAGVAKHDGFVFFVDNALPEEVIDMRVLKVNKNSGFGKVEAYHYLSSARNADVNLTYLRTGIADLGHLTYEDQLTFKKKQVQDSLYKIAGISDVTVESTIGMTEPLAYRNKAQVPVRRVNGQLETGFFRKHSHDLIPISDYYIQDKEIDRLINFTRDLLRRFDIKPYDETEQTGLLRNIVVRRGHYSGEMMLVLVTTRPKVFRVDQVIEKIVEAFPAVVSIIQNINDKNTNAIFGKDFKTLYGKDTITDSMLGNNYAISAQSFYQVNTVMAEKLYQTAIAFSDLSKDDIVIDAYSGIGTIGLSFAKTVKAVYGVEVIEAAVRDAQQNAALNGITNAYFVADTAEHAMATWAKDGIKPSVILVDPPRKGLTESFIQASVAMGPQKITYVSCNPATMARDIKRYQELGYKLAKVQPVDLFPQTHHVECVVLLIKEEGHHHHHH	soluble
MARPIATHDNTFTKAYLQQHCGDLLSFDGQGDLSGWLDDVLTGAGRLNESMASNTKPVSPYLILTQLLTHDTLTVSAVQESLSRKRVALGEPMVSTRYARYVYATVVSASKSVQYHASKAGS	not soluble
MGSDKIHHHHHHLYNNSANTQFTGKSIHFLPSCHSTNTEASLLIRAQKAVNGLIVITNEQTAGRGQQGNSWLSKADSNLTFSVIFFPEKLHLKDSFYLNIVSSLSIAKTVDELVPENIVKVKWPNDILLNNKKVCGILIENMLRGEHIHAVVMGIGVNVNHSDGNLPFAGAMSSEAAKTFHLQEVFTRICENLEPYYLMLEQGLFAELDALYLQNLYGLNEKKHFSDSEGNFTGTIQAVLPGGLLQVEKESGVIKQYTFKEVSLVK	not soluble
MNGAQWVVHALRAQGVKTVFGYPGGAIMPVYDALYDGGVEHLLCRHEQGAAMAAIGYARSTGKTGVCIATSGPGATNLITGLADALLDSVPVVAITGQVSAPFIGTDAFQEVDVLGLSLACTKHSFLVQSLEELPRIMAEAFEVANAGRPGPVLVDIPKDIQLASGELEPWFTTVANEATFPQADVEQARQMLEQAKKPMLYVGGGVGMAQAVPALRKFIAVTQMPVTCTLKGLGAVEADYPYYLGMLGMHGTKAANFAVQECDLLIAVGARFDDRVTGKLNTFAPNASVIHMDIDPAEMNKLRQAHVALQGDLNSLLPALQQPLKIDAWRQSCAELRAEHAWRYDHPGETIYAPLLLKQLSERKPADSVVTTDVGQHQMWSAQHMTYTRPENFITSSGLGTMGFGLPAAVGAQVARPNDTVICISGDGSFMMNVQELGTVKRKQLPLKIVLLDNQRLGMVRQWQQLFFQERYSETTLTDNPDFLMLASAFGIPGQHITRKDQVEAALDTMLASEGPYLLHVSIDELENVWPLVPPGASNSEMLEKLS	not soluble
MAATMNEGNAQHAWDLMKKITFAMLATRDGEKIRSRPMAAYVRPEEGAIYFLTDVRRHKDEEIAQDHHVNLGFANASAQKYVSVTGYAAISNDRAKIKELFGTEAKAWWDSADDPNIRVLKVTPEEAEYWDSPGSLISYAKMMVAAATGNRPDLGENAKVAI	not soluble
MNSNKELMQRRSQAIPRGVGQIHPIFADRAENCRVWDVEGREYLDFAGGIAVLNTGHLHPKVVAAVEAQLKKLSHTCFQVLAYEPYLELCEIMNQKVPGDFAKKTLLVTTGSEAVENAVKIARAATKRSGTIAFSGAYHGRTHYTLALTGKVNPYSAGMGLMPGHVYRALYPCPLHGISEDDAIASIHRIFKNDAAPEDIAAIVIEPVQGEGGFYASSPAFMQRLRALCDEHGIMLIADEAQSGAGRTGTLFAMEQMGVAPDLTTFAKSIAGGFPLAGVTGRAEVMDAVAPGGLGGTYAGNPIACVAALEVLKVFEQENLLQKANDLGQKLKDGLLAIAEKHPEIGDVRGLGAMIAIELFEDGDHNKPDAKLTAEIVARARDKGLILLSCGPYYNVLRILVPLTIEDAQIRQGLEIISQCFDEAKQ	soluble

Reference: the DeepSol protein solubility set
